The results in this text go back to patent US20160264674A1 (ADURO BIOTECH HOLDINGS EUROPE B V, published 2016).

The target in assay [1] is T1, FLAG-tagged human APRIL (human, UniProt O75888 105-250, limits assumed).
T1 construct: also called FLAG-tagged APRIL; FLAG-APRIL; not shown: FLAG tag
T1 sequence (looked up): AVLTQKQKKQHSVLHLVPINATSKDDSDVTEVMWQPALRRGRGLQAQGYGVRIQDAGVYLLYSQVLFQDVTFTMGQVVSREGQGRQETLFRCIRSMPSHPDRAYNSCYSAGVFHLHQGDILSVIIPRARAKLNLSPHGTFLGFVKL
Put plainly: competition ELISA: antibody premixed with FLAG-tagged APRIL, added to coated Fc-BCMA, anti-FLAG HRP. The procedure:
A subset of humanized antibodies described above was selected for further analyses. Again, plasmids encoding the VH and VL constructs were mixed in a 1:3 ratio (32 μg) and transiently expressed by transfection into (8*10⁶) HEK293T human embryonic kidney cells (HEK293T), using Lipofectamine 2000 transfection reagent (Invitrogen) according to the manufacturer's instructions. Supernatants were harvested (10 ml) and antibodies were purified using MabSelect Sure Protein A resin according to the manufacturer's instructions (GE Healthcare). Buffer was exchanged for PBS using Zeba desalting columns (Thermo Scientific). The concentration of purified antibodies was determined based on OD280 (Nanodrop ND-1000). The binding of the purified antibodies to APRIL was established using the above described APRIL ELISA. The blocking capability of the humanized antibodies with BCMA and TACI receptors, was tested in a competition ELISA. In these ELISAs, all incubation steps were followed by a wash step with PBST (PBS with 0.01% Tween 20). Maxisorb 96-wells plates (Nunc) were coated with 0.5 μg/ml Fc-BCMA (R&D Systems) or Fc-TACI (R&D Systems) and incubated overnight at 4° C. Next, humanized antibodies and dilutions thereof were incubated, premixed with FLAG-tagged APRIL, for 1 hour, which was followed by an incubation of 1 hour with anti-FLAG HRP-conjugate (Sigma). Immunoreactivity was visualized with 100 μl TMB Stabilized Chromagen (Invitrogen). Reactions were stopped with 100 μl 0.5 M H2504 and absorbances were measured at 450 and 620 nm. Calculated EC₅₀ and IC₅₀ representing the concentration at which 50% of the total binding signal or blocking is observed are represented in Table 5.
The antibodies were tested for binding, blockade, and stability as described before.
(An ELISA detects its analyte on a solid surface through an enzyme-linked reagent.)

The target of assay [2] is T1, FLAG-tagged human APRIL. Description: ELISA: FLAG-tagged human APRIL captured on anti-FLAG plate, purified antibody titrated.
Assay [3] concerns the target T1, FLAG-tagged human APRIL. Description: FLAG-APRIL ELISA after 10 min at 70 °C, antibody at 1 µg/ml.
The target in assay [4] is T1, FLAG-tagged human APRIL. Put plainly: FLAG-APRIL ELISA after 10 min at 65 °C, antibody at 3.16 µg/ml. Here is the method:
(§1) The plasmids encoding the VH and VL constructs were mixed in a 1:3 ratio (4 μg in total) and transiently expressed by transfection into HEK293T human embryonic kidney cells (HEK293T/17, ATCC-CRL-11268), using Lipofectamine 2000 transfection reagent (Invitrogen) following the manufacturer's instructions. Cell supernatants were harvested after 5 days and tested for expression of antibody and binding to APRIL using an enzyme-linked immuno assay (ELISA). In these ELISAs, all incubation steps were followed by a wash step with PBST (PBS with 0.01% Tween 20). Maxisorb 96-wells plates (Nunc) were coated with 0.5 μg/ml anti-FLAG (Sigma) or anti-IgG4 (Jackson laboratories) and incubated overnight at 4° C. Subsequently the anti-FLAG coated 96-wells plates were incubated with FLAG-tagged human APRIL for 1 hour at room temperature. Next, supernatants and dilutions thereof were incubated for 1 hour, which was followed by an incubation of 1 hour with mouse anti-human IgG HRP-conjugate (Southern Biotechnology).
(§2) To determine the effect of humanization on the stability of the antibodies, humanized antibodies were exposed to a range of temperatures for 10 minutes. Purified antibodies were diluted to 3.16 μg/ml and dilutions thereof in PBS. Next, these solutions were exposed to 65° C. or 70° C. and residual binding after heat treatment of the antibodies was measured using the FLAG-tagged APRIL ELISA assay as described before (see Table 6).
(§3) In addition, the stability of the substituted humanized antibodies was improved as determined using thermostability studies as described in Example 3 (see Table 9).

Assay [5] concerns the target T1, FLAG-tagged human APRIL. Description: FLAG-APRIL ELISA after 10 min at 70 °C, antibody at 3.16 µg/ml.
Assay [6] has as its target T1, FLAG-tagged human APRIL. Put plainly: FLAG-APRIL ELISA after 10 min at 65 °C, antibody at 0.316 µg/ml. Here is the method:
as §1, §2, §3

Assay [7] deals with T1, FLAG-tagged human APRIL. Description: FLAG-APRIL ELISA after 10 min at 70 °C, antibody at 0.316 µg/ml.
Assay [8] has as its target T1, FLAG-tagged human APRIL. Description: FLAG-APRIL ELISA after 10 min at 65 °C, antibody at 1 µg/ml. Here is the method:
as §1, §2, §3

B1: VH14_1E.VL15 (antibody, human IgG4, V domains shown)
VH: EVQLVQSGAEVKKPGASVKVSCKASGYTFTSYVMHWVRQAPGQGLEWMGYINPYNDAPKYNEKFKGRVTMTSDTSASTAYMELSSLRSDDTAVYYCARGLGYALYYAMDYWGQGTTVTVSS
VL: DIVMTQSPSTLSASVGDRVTITCKASQNVGNNVAWYQQKPGKAPKLLISSASNRDSGVPSRFSGSGSGTEFTLTISSLQPDDFATYFCQQYNIYPFTFGQGTKLEIK
notes: VH14_1 with Q1E; Rest is human IgG4 (S241P, Kabat) and human kappa; also called 14_1E.15
The molecule B1 had a half-inhibitory concentration (IC50) with FLAG-tagged human APRIL [1] of 1.74 nM. Further, in the assay with FLAG-tagged human APRIL [2], it took 2.67 nM to reach a half-maximal effect (EC50). For the same molecule, the “% residual binding after heat treatment (room temperature = 100%)” value is 28% with FLAG-tagged human APRIL [3]; 82.3% in the assay with FLAG-tagged human APRIL [4]; 78.8% in the assay with FLAG-tagged human APRIL [5]; 52% in the assay with FLAG-tagged human APRIL [6]; 43.3% in the assay with FLAG-tagged human APRIL [7]; 39.7% in the assay with FLAG-tagged human APRIL [8].

B2: VH14_1G.VL15 (antibody, human IgG4 S228P, kappa, V domains shown)
VH: QVQLVQSGAEVKKPGASVKVSCKASGYTFTSYVMHWVRQAPGQGLEWMGYINPYNDAPKYNEKFKGKATMTSDTSASTAYMELSSLRSDDTAVYYCARGLGYALYYAMDYWGQGTTVTVSS
VL: DIVMTQSPSTLSASVGDRVTITCKASQNVGNNVAWYQQKPGKAPKLLISSASNRDSGVPSRFSGSGSGTEFTLTISSLQPDDFATYFCQQYNIYPFTFGQGTKLEIKR
notes: VH14_1 with R67K and V68A; Humanized IgG4 (S241P, Kabat) with human kappa; also called 14_1G.15; 14_1 G.15
Regarding B2, the IC50 in the assay with FLAG-tagged human APRIL [1] amounted to 1.35 nM. The molecule further yielded a half-maximal effective concentration (EC50) with FLAG-tagged human APRIL [2] of 0.78 nM. The “% residual binding after heat treatment (room temperature = 100%)” value with FLAG-tagged human APRIL [3] was found to be 16.9%; with FLAG-tagged human APRIL [4], 94.5%; with FLAG-tagged human APRIL [5] it was 78.2%; with FLAG-tagged human APRIL [6], 34.2%; in the assay with FLAG-tagged human APRIL [7], 23.8%; with FLAG-tagged human APRIL [8], 31.3%.

The term IC50 denotes the concentration at which inhibition is half-maximal. A higher IC50 goes with lower potency. The EC50 is the midpoint of the concentration-response curve. The low end stands for a more potent agent, the high end for a less potent agent.
